Data published in patent publication US12291578B2, “Anti-matrix metalloproteinase 7 (MMP-7) inhibitory antibody and uses thereof” (Yeda Research and Development Co. Ltd., priority 2019, dated 2025).
Entries after “also recorded” stand apart in the source; their conditions may differ.

What was measured:
[1] = test system: RIP1-Tag2 mice serum (circulating MMP); experiment: Dot blot with RIP1-Tag2 mice serum; assay type: binding, mouse; details: serum of RIP1-Tag2 mice with late stage insulinomas, 335 times the protein of pure MMP-7 control
Description: (§1) A dot blot was performed by immobilizing 1, 1.5 and 2 μg zymogen and activated MMP-7 recombinant enzyme on nitrocellulose membrane pre wetted with TBST using a vacuum based manifold 96 well dot-blot system (GE 10447900 Minifold dot blot). The blocking was performed for 1 hour at room temperature with 3% BSA in TBST. The membrane was then probed for binding by antibody eluted in the earlier step by incubating overnight. The anti MMP-7 mAb used was at 2 ug/ml concentration in TBST. The membrane after 3 washes in TBST was incubated with goat anti mouse HRP antibody and developed using ECL to determine the selectivity of binding towards catalytic form only.
Serum isolated from RIP1-Tag2 mice with late stage insulinomas were used to determine if anti MMP-7 mAb would be bound and removed by circulating enzyme. […] The total serum protein loaded for this experiment was 335 times the protein concentration used for pure MMP-7 catalytic control.

MMP-9 = MMP-9 (Homo sapiens, UniProt P14780); experiment: Enzymatic activity of related MMPs (fluorogenic peptide); assay type: biochemical; details: in vitro
Chain of MMP-9 (P14780 94-707, species assumed): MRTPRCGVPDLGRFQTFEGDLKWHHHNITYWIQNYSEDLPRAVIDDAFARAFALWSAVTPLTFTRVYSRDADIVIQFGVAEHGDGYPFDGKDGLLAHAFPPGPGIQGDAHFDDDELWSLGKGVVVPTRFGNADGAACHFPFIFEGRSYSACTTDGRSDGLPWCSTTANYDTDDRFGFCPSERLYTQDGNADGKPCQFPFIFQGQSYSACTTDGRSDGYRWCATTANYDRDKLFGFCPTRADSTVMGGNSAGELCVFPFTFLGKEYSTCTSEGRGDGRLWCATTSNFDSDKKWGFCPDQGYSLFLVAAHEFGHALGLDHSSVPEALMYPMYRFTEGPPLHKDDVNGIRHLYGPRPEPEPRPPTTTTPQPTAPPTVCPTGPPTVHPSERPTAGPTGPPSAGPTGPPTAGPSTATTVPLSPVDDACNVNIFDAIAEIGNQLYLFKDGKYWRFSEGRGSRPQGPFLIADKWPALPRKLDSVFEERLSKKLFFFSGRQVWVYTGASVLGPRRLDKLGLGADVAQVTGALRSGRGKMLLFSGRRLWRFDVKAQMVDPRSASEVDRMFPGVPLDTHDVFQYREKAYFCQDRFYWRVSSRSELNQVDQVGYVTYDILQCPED
Description: (§2) MMP-7 enzymatic kinetic assay: The enzymatic activity of MMP-7 in the presence of GSM-192 Fab was measured at 37° C. by monitoring the hydrolysis of fluorogenic peptide Mca-Pro-Leu-Gly-Leu-Dpa-Ala-Arg-NH2 (SEQ ID NO: 10) at λex=340 nm and […] as described previously^30. A range of different concentrations of GSM-192 Fab (0-200 nM) were incubated with 10 nM of MMP-7 in 50 mM Tris-HCl buffer (pH 7.5 at 37° C.), 100 mM NaCl, 5 mM CaCl2, and 0.05% Brij-35 for 2 h at 37° C. The enzymatic reaction was initiated by addition of the fluorogenic peptide to a final concentration of 10 μM. Fluorescence was recorded immediately and continuously for 30 min.
(§3) Remarkably, considering that the immunization booster also included the common zinc motif, the antibody is fully selective for MMP-7. The effect of GSM-192 Fab fragment on the enzymatic activity of human MMP-7 was examined in vitro using a short fluorogenic peptide according to a standard protocol. The enzymatic activity of recombinant active MMP-7 was measured in the presence of increasing concentrations of the Fab fragment of GSM-192. […] Simultaneously the effect of the antibody on catalytic activity of related MMPs was measured.

MMP-12 = MMP-12 (Homo sapiens, UniProt P39900); experiment: as above; assay type: biochemical; details: in vitro
Chain of MMP-12 (P39900 106-470): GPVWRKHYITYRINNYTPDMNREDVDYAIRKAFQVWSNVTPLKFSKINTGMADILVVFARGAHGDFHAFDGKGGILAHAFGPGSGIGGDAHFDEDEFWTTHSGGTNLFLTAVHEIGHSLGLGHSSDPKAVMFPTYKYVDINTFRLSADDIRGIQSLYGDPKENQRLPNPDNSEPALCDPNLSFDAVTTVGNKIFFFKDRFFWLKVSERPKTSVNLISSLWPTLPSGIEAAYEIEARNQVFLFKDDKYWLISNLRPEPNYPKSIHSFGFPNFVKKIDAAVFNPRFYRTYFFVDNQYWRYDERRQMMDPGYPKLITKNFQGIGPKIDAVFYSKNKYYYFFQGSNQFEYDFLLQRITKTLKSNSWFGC
Description: as §2, §3

MMP-14 = MMP-14 (Homo sapiens, UniProt P50281); experiment: as above; assay type: biochemical; details: in vitro
Description: as §2, §3

panel of other MMPs = experiment: ELISA binding, panel of other MMPs
Description: MMP-7 Elisa binding assay: A 96-well plate (Nunc) was coated with MMP at […]. After coating, the plate was incubated with the GSM-192 at 25° C. for 1 h. The bound Fab fragment/full length was detected using a goat anti-Fab/anti-mouse antibody followed by peroxidase-conjugated bovine anti-goat antibody according to standard procedures. A four-parametric sigmoidal curve-fitting analysis was used to calculate the half-maximal effective concentration.

[2] = test system: RIP1-Tag2 insulinoma (PanNET) model; experiment: Early stage treatment in RIP1-Tag2 (PanNET) mice; assay type: in vivo, mouse; details: 3 mg/kg every day IP; for area covered by CD34+ cells: islets undergoing angiogenesis
Description: RIP1-Tag2: The RIP1Tag2 (RT2) murine PanNET model was developed by the fusion of Rat Insulin II promoter region to the SV40 early region that encodes the large T and small t antigens. Although oncogene expression begins during embryonic development (E8.5), the pancreatic islets initially have a normal anatomical and histological appearance (“normal” stage). Beginning at 4-5 weeks of age, hyperplastic and dysplastic islets begin to appear, rending 50% of all islets by 10 weeks of age. Angiogenic islets appear beginning around 6 weeks of age, and represent 10% of all islets at 10.5 weeks. Angiogenic islets are recognized by their dilated blood vessels and micro-hemorrhages. Tumors form beginning at 9-10 weeks and represent 2-4% of all the islets by 14 weeks. About half of the tumors at end stage evidence either focal or widespread invasion to the surrounding acinar tissue. RIP-Tag2 mice die at approximately 14 weeks of age primarily due to hyperinsulinemia.
GSM-192 treatment reduces occurrence of advanced tumor lesions in RIP1-Tag2 (PanNET) mice in early stage treatments: RIP1-Tag2 mice (n=15) in transition stage from hyperplastic to angiogenic stage spanning 6 to 8 weeks of age were treated with GSM-192 and GST control antibody at a concentration of 3 mg/kg every day intra peritoneal (IP). Animals at age 8 weeks post treatment was sacrificed and their pancreas was embedded in paraffin blocks and sectioned. Several sections in different depth in the tissue were made for subsequent histological analysis or immunofluorescence staining. Tumor sizes and staging was done in accordance with RIP1-Tag2 manual. […] As previously observed in in-vitro cell culture, the tissue was tested for differences in cell proliferation rate (with cell division marker Ki-67) and in cell apoptosis rate (with effector apoptotic marker Caspase-3).

CFPAC-1 cells = experiment: Wound healing assay (scratch assay); assay type: cell-based, human; details: 7 hours post treatment, vs control antibody GST
Description: Wound Healing Assay (Scratch Assay): The migratory behavior of cells was assayed by means of a wound-healing assay using a culture-insert (ibidi GmbH, Am Klopferspitz 19, Martinsried, Germany) according to the manufacturer's instruction. After 24 h the culture-inserts were removed leaving a cell-free gap (“defined as a wound”) of approx. 500 μm. The migration rate into this “wound area” was documented and measured using Carl Zeiss microscope (DeltaVision Microscopy Imaging Systems—GE Healthcare Life Sciences, USA). The migration rate was determined by percentage area covered by cells. Each analysis was performed in triplicates and was repeated two times.
GSM-192 Fab reduces cell motility in vitro: MMP-7 mediated E-Cadherin cleavage promotes cell migration^19, so it was hypothesized that an effective anti MMP-7 antibody directed to the activated enzyme should be able to impact migration.

[3] = molecular target: T1, activated MMP-7 recombinant enzyme (Homo sapiens, UniProt P09237); experiment: Dot blot, activated enzyme; assay type: binding; details: different concentrations of enzyme
T1 sequence (P09237 95-267): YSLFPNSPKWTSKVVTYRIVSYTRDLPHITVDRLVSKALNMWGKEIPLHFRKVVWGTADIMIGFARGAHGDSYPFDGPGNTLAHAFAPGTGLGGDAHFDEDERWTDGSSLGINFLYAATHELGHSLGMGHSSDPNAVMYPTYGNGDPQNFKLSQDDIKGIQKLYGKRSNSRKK
Description: as §1

[4] = 6 to 8 weeks of age, listed as anti MMP-7 mAb

B1: GSM-192: monoclonal antibody to MMP-7 binding the catalytic domain, not the zymogen; VL SEQ ID NO: 1, VH SEQ ID NO: 2 (antibody, V domains shown)
VH: EVQLQQSGPELVKPGASVKIPCKASGYTFTDYNMDWMKQSHGKSLEWIGHINPNNGGTFYNQKFKDKATFIVDKSSNTAYMELRSLTSEDTAVYFCARGGGLRRGPFAYWGQGTLVTVS
VL: DIVTQSPASLAVSLGQRATISCRASESFDSYGNTFVHWYQQKPGQPPKLLIYLVSNLESGVPAGFRGRGSRTDFTLTIDPVEADDAATYYCQQNNEDPYTFGGGTKLEIKRA
modifications: GSM-192 Heavy Chain Sequence; GSM-192 Light Chain Sequence
[1]; listed as Anti MMP-7mAb
  binding to total serum proteins: does not bind
[1]; listed as anti MMP-7 mAb
  binding to total serum proteins: did not show any binding
MMP-9
  effect on catalytic activity of MMP-9: negligible or no effect
MMP-12
  effect on catalytic activity of MMP-12: negligible or no effect
MMP-14
  effect on catalytic activity of MMP-14: negligible or no effect
Panel of other MMPs
  binding to a panel of other MMPs: did not bind effectively
[2]; 6 to 8 weeks of age
  number of Caspase-3 positive cells (apoptosis): No significant change
  number of Ki-67 positive cells (cell proliferation): No significant change
[2]; [4]
  number of Caspase-3 positive cells (apoptosis): does not show significant difference
  number of Ki-67 positive cells (cell proliferation): does not show significant difference
[2]; 6 to 8 weeks of age, vs GST control antibody
  number of angiogenic islets / fraction of islets advancing to post angiogenic lesions: reduced almost by half; also recorded: half of the total seen in control mice
[2]
  area covered by CD34+ cells: less abundant
[2]; listed as anti MMP-7 mAb
  area covered by CD34+ cells: reduces the area covered by CD34+ cells
CFPAC-1 cells
  cell migration / rate of wound closure: significant reduction in rate of wound closure; also recorded: slowed down cell migration
[3]
  binding to activated form of MMP-7: bound to the catalytic domain
[3]; listed as anti MMP-7 Ab
  binding to activated form of MMP-7: selective binding
